Measured values as given in publication PMC11117730 (2024).
Where two headings read alike, the source gives them in different places.

Legend:
Assay in all cases: SPR
anti-IL-17A = target: anti-IL-17A
anti-IL-17A-sST2 [1] = target: T1, anti-IL-17A-sST2 (mouse, UniProt P14719 27-332)
mouse IL-33 = target: T2, mouse IL-33 (mouse, UniProt Q8BVZ5 1-266)
T2 chain: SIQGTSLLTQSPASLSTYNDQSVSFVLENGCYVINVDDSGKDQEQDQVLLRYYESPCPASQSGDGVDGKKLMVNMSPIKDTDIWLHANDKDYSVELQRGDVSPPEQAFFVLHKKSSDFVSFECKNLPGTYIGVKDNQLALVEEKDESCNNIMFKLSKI

anti-IL-17A-sST2 [2] = target: T1, anti-IL-17A-sST2; remark: listed apart in the source

B1: mouse IL-17A (protein)
chain: AAIIPQSSACPNTEAKDFLQNVKVNLKVFNSLGAKVSSRRPSDYLNRSTSPWTLHRNEDPDRYPSVIWEAQCRHQRCVNAEGKLDHHMNSVLIQQEILVLKREPESCPFTFRVEKMLVGVGCTCVASIVRQAA
Kd (anti-IL-17A): 0.0265 nM | koff (anti-IL-17A): 1.57e-05 s⁻¹ | Kd (anti-IL-17A-sST2 [1]): 0.0457 nM | koff (anti-IL-17A-sST2 [1]): 2.17e-05 s⁻¹

B2: sST2-Fc (Fc fusion)
chain: SKSSWGLENEALIVRCPQRGRSTYPVEWYYSDTNESIPTQKRNRIFVSRDRLKFLPARVEDSGIYACVIRSPNLNKTGYLNVTIHKKPPSCNIPDYLMYSTVRGSDKNFKITCPTIDLYNWTAPVQWFKNCKALQEPRFRAHRSYLFIDNVTHDDEGDYTCQFTHAENGTNYIVTATRSFTVEEKGFSMFPVITNPPYNHTMEVEIGKPASIACSACFGKGSHFLADVLWQINKTVVGNFGEARIQEEEGRNESSSNDMDCLTSVLRITGVTEKDLSLEYDCLALNLHGMIRHTIRLRRKQPIDHR
koff (mouse IL-33): 0.000199 s⁻¹

B3: mouse IL-33 (ligand)
chain: MRPRMKYSNSKISPAKFSSTAGEALVPPCKIRRSQQKTKEFCHVYCMRLRSGLTIRKETSYFRKEPTKRYSLKSGTKHEENFSAYPRDSRKRSLLGSIQAFAASVDTLSIQGTSLLTQSPASLSTYNDQSVSFVLENGCYVINVDDSGKDQEQDQVLLRYYESPCPASQSGDGVDGKKLMVNMSPIKDTDIWLHANDKDYSVELQRGDVSPPEQAFFVLHKKSSDFVSFECKNLPGTYIGVKDNQLALVEEKDESCNNIMFKLSKI
koff (anti-IL-17A-sST2 [2]): 0.000143 s⁻¹
